B1: Homeobox-containing protein 1 (Homo sapiens), Q6NT76 (parent)
chain: MLSSFPVVLLETMSHYTDEPRFTIEQIDLLQRLRRTGMTKHEILHALETLDRLDQEHSDKFGRRSSYGGSSYGNSTNNVPASSSTATASTQTQHSGMSPSPSNSYDTSPQPCTTNQNGRENNERLSTSNGKMSPTRYHANSMGQRSYSFEASEEDLDVDDKVEELMRRDSSVIKEEIKAFLANRRISQAVVAQVTGISQSRISHWLLQQGSDLSEQKKRAFYRWYQLEKTNPGATLSMRPAPIPIEDPEWRQTPPPVSATSGTFRLRRGSRFTWRKECLAVMESYFNENQYPDEAKREEIANACNAVIQKPGKKLSDLERVTSLKVYNWFANRRKEIKRRANIEAAILESHGIDVQSPGGHSNSDDVDGNDYSEQDDSTSHSDHQDPISLAVEMAAVNHTILALARQGANEIKTEALDDD
partner: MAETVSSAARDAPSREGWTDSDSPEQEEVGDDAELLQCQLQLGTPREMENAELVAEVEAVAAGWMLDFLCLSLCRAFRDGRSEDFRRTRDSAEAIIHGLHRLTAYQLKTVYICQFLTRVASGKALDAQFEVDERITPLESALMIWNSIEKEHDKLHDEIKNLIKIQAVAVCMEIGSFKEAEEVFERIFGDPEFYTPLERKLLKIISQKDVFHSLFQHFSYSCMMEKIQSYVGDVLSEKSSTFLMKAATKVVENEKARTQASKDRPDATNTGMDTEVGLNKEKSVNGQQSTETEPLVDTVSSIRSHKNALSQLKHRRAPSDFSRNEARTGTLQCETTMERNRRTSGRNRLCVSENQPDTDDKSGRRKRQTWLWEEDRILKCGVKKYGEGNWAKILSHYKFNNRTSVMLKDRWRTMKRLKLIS

Variants of: B1
Details: with terf1_mouse Terf1, P70371

Variant	effect of a mutation on the interaction
R339A	disrupting interaction
